Each substance was assayed against HLA-A*02:01 (Homo sapiens, UniProt P04439, D140Y/D185E/D98H/E176V/E277Q/G131W/G231S/I119V/I121R/I166T/I218V/L300P/L318F/N151K/N90K/P208A/P217A/Q86G/Q94H/R138H/R169H/T345S) (assay: MHC binding assay: UV-ligand exchange with beta2m ELISA (peptide exchange yield)). Settings: binding to HLA-A*02:01.
Outline: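 Peptide-MHC complexes formed by UV-ligand exchange, a UV-cleavable peptide being replaced by the candidate peptide. Exchange products diluted 100-fold, captured on streptavidin-coated plates for 1h at 37° C, then detected with 2 ug/ml HRP anti-β2m (1h, 37° C) and TMB, absorbance 450 nm; value is exchange yield.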

Row | Substance | Peptide exchange (MHC class I binding score, peptide exchange yield)
1 | 220 (LLQKFVPEI; listed as Homo sapiens) [compound 220] | “++” (≥20% = ++)
2 | 623 (YLVEDIQHI; listed as Homo sapiens) [compound 623] | “+++” (≥50 = +++)
3 | 527 (FLLEPGNLEV; listed as Homo sapiens) [compound 527] | “++++” (≥75% = ++++)
4 | 568 (TLYDIAHTPGV; listed as Homo sapiens) [compound 568] | “++++” (≥75% = ++++)
5 | 54 (SLLEQGKEPWMV; listed as Homo sapiens) [compound 54] | “+++” (≥50 = +++)
6 | 132 (LLVEQPPLAGV; listed as Homo sapiens) [compound 132] | “+++” (≥50 = +++)
7 | 190 (FLSSLTETI; listed as Homo sapiens) [compound 190] | “+++” (≥50 = +++)
8 | 49 (YLPAVFEEV; listed as Homo sapiens) [compound 49] | “+++” (≥50 = +++)
9 | 305 (SIANFSEFYV; listed as Homo sapiens) [compound 305] | “++++” (≥75% = ++++)
10 | 451 (LLLLDTVTMQV; listed as Homo sapiens) [compound 451] | “++” (≥20% = ++)
11 | 520 (LAVHPSGVAL; listed as Homo sapiens) [compound 520] | “+” (≥10% = +)
12 | 182 (MLLEAPGIFL; listed as Homo sapiens) [compound 182] | “+++” (≥50 = +++)
13 | 192 (KMLDGASFTL; listed as Homo sapiens) [compound 192] | “+++” (≥50 = +++)
14 | 531 (YTLPIASSIRL; listed as Homo sapiens) [compound 531] | “+++” (≥50 = +++)
15 | 575 (YLISQVEGHQV; listed as Homo sapiens) [compound 575] | “+++” (≥50 = +++)
16 | 578 (FLDPGGPMMKL; listed as Homo sapiens) [compound 578] | “+++” (≥50 = +++)
17 | 346 (LLDSKVPSV; listed as Homo sapiens) [compound 346] | “+++” (≥50 = +++)
18 | 582 (TLCDVILMV; listed as Homo sapiens) [compound 582] | “+++” (≥50 = +++)
19 | 89 (YILPTETIYV; listed as Homo sapiens) [compound 89] | “++++” (≥75% = ++++)
20 | 396 (ALLPDLPAL; listed as Homo sapiens) [compound 396] | “+++” (≥50 = +++)
21 | 3 (SLASKLTTL; listed as Homo sapiens) [compound 3] | “++++” (≥75% = ++++)
22 | 193 (QLLDADGFLNV; listed as Homo sapiens) [compound 193] | “+++” (≥50 = +++)
23 | 72 (SLLELDGINL; listed as Homo sapiens) [compound 72] | “+++” (≥50 = +++)
24 | 168 (KILDADIQL; listed as Homo sapiens) [compound 168] | “++++” (≥75% = ++++)
25 | 397 (YLFGERLLEC; listed as Homo sapiens) [compound 397] | “+++” (≥50 = +++)

Row | Substance | Peptide exchange (MHC class I binding score, peptide exchange yield)
26 | 52 (FLLAHGLGFLL; listed as Homo sapiens) [compound 52] | “++++” (≥75% = ++++)
27 | 455 (SLLKEPQKVQL; listed as Homo sapiens) [compound 455] | “++” (≥20% = ++)
28 | 366 (RLLDMGETDLML; listed as Homo sapiens) [compound 366] | “+++” (≥50 = +++)
29 | 554 (LLMPSSEDLLL; listed as Homo sapiens) [compound 554] | “+++” (≥50 = +++)
30 | 226 (MLYVVPIYL; listed as Homo sapiens) [compound 226] | “++” (≥20% = ++)
31 | 150 (RLWEEGEELEL; listed as Homo sapiens) [compound 150] | “+++” (≥50 = +++)
32 | 99 (ALVSKGLATV; listed as Homo sapiens) [compound 99] | “++” (≥20% = ++)
33 | 465 (QLCDLNAEL; listed as Homo sapiens) [compound 465] | “+++” (≥50 = +++)
34 | 492 (SLFDGFADGLGV; listed as Homo sapiens) [compound 492] | “+++” (≥50 = +++)
35 | 495 (FIFSEKPVFV; listed as Homo sapiens) [compound 495] | “+++” (≥50 = +++)
36 | 176 (YLMEGSYNKVFL; listed as Homo sapiens) [compound 176] | “++” (≥20% = ++)
37 | 109 (IILSILEQA; listed as Homo sapiens) [compound 109] | “++++” (≥75% = ++++)
38 | 597 (KLLEGQVIQL; listed as Homo sapiens) [compound 597] | “+++” (≥50 = +++)
39 | 204 (KIAENVEEV; listed as Homo sapiens) [compound 204] | “++” (≥20% = ++)
40 | 21 (VLDELDMEL; listed as Homo sapiens) [compound 21] | “++” (≥20% = ++)
41 | 142 (FLFATPVFI; listed as Homo sapiens) [compound 142] | “+++” (≥50 = +++)
42 | 74 (ALLDPEVLSIFV; listed as Homo sapiens) [compound 74] | “+++” (≥50 = +++)
43 | 181 (LLWAGTAFQV; listed as Homo sapiens) [compound 181] | “+++” (≥50 = +++)
44 | 426 (RLADKSVLV; listed as Homo sapiens) [compound 426] | “+++” (≥50 = +++)
45 | 519 (GLLHLTLLL; listed as Homo sapiens) [compound 519] | “+++” (≥50 = +++)
46 | 378 (ALGYFVPYV; listed as Homo sapiens) [compound 378] | “+++” (≥50 = +++)
47 | 167 (KVLEVTEEFGV; listed as Homo sapiens) [compound 167] | “+++” (≥50 = +++)
48 | 80 (FLYDNLVESL; listed as Homo sapiens) [compound 80] | “++” (≥20% = ++)
49 | 607 (RLYSGISGLEL; listed as Homo sapiens) [compound 607] | “+++” (≥50 = +++)
50 | 95 (SVIPQIQKV; listed as Homo sapiens) [compound 95] | “+++” (≥50 = +++)

Source: patent US10464978B2, “Peptides and combination of peptides for use in immunotherapy against ovarian cancer and other cancers” (immatics biotechnologies GmbH, priority 2015, dated 2019)
